The target in experiment [1] is Multiple peptide resistance factor (MprF) from Pseudomonas aeruginosa, wild type, CPD-His construct after IP6 cleavage (Pseudomonas aeruginosa). As to the kind of experiment: cryo-EM structure.
Experiment [2] has the same target. Put plainly: cryo-EM structure. The source holds these as a separate data set.

This is an account of results in publication doi:10.1101/2024.08.21.608925.

Like-named read-outs stand apart in the source and are kept apart here.

Turning to “Multiple peptide resistance factor (MprF) from Pseudomonas aeruginosa, wild type, CPD-His construct after IP6 cleavage (enzyme)”, the stoichiometry N in experiment [1] and in experiment [2] was 2 each time.

What is called stoichiometry N is a count of units in the complex or per binding partner.
